In IntAct's records for PubMed 25350732:

B1: Probable peptidoglycan glycosyltransferase FtsW (Caulobacter crescentus), B8H092 (parent)
chain: MASNATHAFARTDRTALGLWWWTTDRWLLGATALLVTLGMLLSFASSPAAAQRIGIDDQFHFALRMCFFATASSVLMLITSMLSPRDIRRAAFFIYLGAIAVMIALPFIGHNAKGATRWLQFAGFTLQPSEFMKPALIVLVSWMFAEGQKGEGVPGVSIAFLLYFIAVALLLIQPDVGQTVLITIAFGAAFWMAGVPISWIMGLGGVALAGLGSTYFLFDHVHARVQKFLSPDQADTHQITRAAEAIRAGGLFGRGPGEGVMKRHVPDLHTDFIYSVAAEEYGLIFSWSLIGLFAFVVVRGLYKAMKLNDPFEQVAAAGLFVLVGQQALINIAVNLNMIPTKGMTLPFISYGGSSMLAMGLTLGMALALLRKRPGAYGASGEFGFGRADA
partner: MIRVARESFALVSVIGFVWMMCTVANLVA

Variants of: B1
Details: with sida_cauvn sidA

| Variant | effect of a mutation on the interaction |
| --- | --- |
| MASNATHAFARTDRTALGLWWWTTDRWLLGKTALLVTLGMLLSFASSPAAAQRIGIDDQFHFALRMCFFATASSVLMLITSMLSPRDIRRAAFFIYLGAIAVMIALPFIGHNAKGATRWLQFAGFTLQPSEFMKPALIVLVSWMFAEGQKGEGVPGVSIAFLLYFIAVALLLIQPDVGQTVLITIAFGAAFWMAGVPISWIMGLGGVALAGLGSTYFLFDHVHARVQKFLSPDQADTHQITRAAEAIRAGGLFGRGPGEGVMKRHVPDLHTDFIYSVAAEEYGLIFSWSLIGLFAFVVVRGLYKAMKLNDPFEQVAAAGLFVLVGQQALINIAVNLNMIPTKGMTLPFISYGGSSMLAMGLTLGMALALLRKRPGAYGASGEFGFGRADA [A31K] | disrupting interaction strength |
